{
  "source": "patent US6602687B1",
  "about": "“DNA encoding human ciliary neurotrophic factor and method for producing the protein encoded thereby” (Regeneron Pharmaceuticals, Inc., priority 1989, dated 2003)",
  "molecules": {"B1": {"name": "CNTF: ciliary neurotrophic factor; recombinant rat CNTF in Sections 10, 15, 17, purified rat sciatic nerve CNTF in Section 11; see endpoint conditions (protein, UniProt P20294 1-200, looked up)", "Ciliary neurotrophic factor": "MAFAEQTPLTLHRRDLCSRSIWLARKIRSDLTALMESYVKHQGLNKNINLDSVDGVPVASTDRWSEMTEAERLQENLQAYRTFQGMLTKLLEDQRVHFTPTEGDFHQAIHTLMLQVSAFAYQLEELMVLLEQKIPENEADGMPATVGDGGLFEKKLWGLKVLQELSQWTVRSIHDLRVISSHQMGISALESHYGAKDKQM"}},
  "key": {"[1]": {"test_system": "Ventral spinal cord neurons", "assay": "E14 rat ventral spinal cord neuron cultures in defined medium", "format": "cell-based", "details": "CNTF 2 μl/ml", "from_the_text": "Sprague-Dawley rats (HSD) were used for all experiments. Pregnant rats were sacrificed by carbon dioxide asphyxiation, and the embryos were rapidly removed and placed in ice-cold Puck's saline G for further dissection.\nSpinal cords were removed aseptically from rat embryos on the 14th day of gestation. The spinal cord was severed caudal to the bulb, freed of sensory ganglia and meninges. The cord was then subdivided into ventral and mediodorsal segments for separate cultures. The cord tissues were minced into small pieces and mechanically dissociated by trituration through a Pasteur pipet in defined culture medium consisting of 50% basal medium Eagle (BME; Gibco) and 50% Ham's nutrient mixture F12 (Gibco) supplemented with glucose (33 mM), glutamine (2 mM, NaHCO3 (15 mM), HEPES (10 mM), insulin (25 μg/ml), transferrin (100 μg/ml) putrescine (60 μM), progesterone (20 nM), Na selenite (30 nM), penicillin G (0.5 μg/ml), streptomycin (0.5 μg/ml), and bovine serum albumin (2.5 μg/ml). Trituration was repeated twice and the supernatants were pooled and filtered through a nylon (Nitex, Tetko) filter (40 μm). Total cell number yielded was determined by hemocytometer counting in the presence of trypan blue. Dissociated ventral cells were then plated at a density of 0.5 million cells/35 mm dish coated with poly-D-lysine (10 μg/ml). Dissociated mediodorsal cells were plated at a density of 1.5 million/35 mm dish coated with poly-D-lysine (10 μg/ml), poly-L-ornithine (10 μg/ml), or poly-L-ornithine with laminin (5 μg/ml). Treatments to these cultures were added at the time of plating. Cultures were maintained at 37° C. in a 95% air/5% CO2 atmosphere at nearly 100% relative humidity. Culture medium was changed every three to four days."}, "[2]": {"test_system": "Ventral spinal cord neurons", "assay": "Choline acetyltransferase (CAT) activity in ventral spinal cord cultures", "format": "cell-based, rat", "procedure": "Sprague-Dawley rats (HSD or Zivic-Miller) were used for all experiments. Pregnant rats (E14) were sacrificed as described in 10.1.1.\nSpinal cords were removed aseptically from rat embryos as described in 10.1.2. The cord tissues were minced into small pieces and incubated in 0.1% trypsin (GIBCO) and 0.01% deoxyribonuclease type 1 (Sigma) at 37° C. for 20 minutes. Trypsin solution was then removed, rinsed and replaced with medium consisting of 45% Eagle's minimum essential medium (MEM), 45% Ham's nutrient mixture F12 (F12), 5% fetal calf serum (GIBCO), 5% horse serum (GIBCO) glutamine (2 mM), penicillin G (0.5 U/ml), and streptomycin (0.5 ug/ml). This was then mechanically dissociated twice by gentle trituration through a Pasteur pipet in the same medium, and the supernatants were pooled and filtered through a nylon filter (Nitex, Tetko; 40 um). Total cell number yielded was determined by hemocytometer counting in the presence of trypan blue. Dissociated ventral cells were then plated at a density of approximately 50,000 cells/cm^2 on dishes coated with poly-L-ornithine (10 ug/ml) and laminin (5 ug/ml). Treatments were given on the day of plating, except for delayed addition experiments in which treatments were given on days 2 or 6. Cultures were maintained at 37° C. in 95% air/5% CO2 atmosphere at nearly 100% relative humidity. Culture medium was changed every 3 to 4 days. A mitotic inhibitor, cytosine arabinoside (Ara C; 0.5 uM), was added on day 2 to reduce the number of nonneuronal cells. On day 7, cells were harvested for measurements of choline acetyltransferase (CAT; Fonnum, 1975 J. Neurochem. 24:407-409) and protein (Bradford, 1976, Annal. Biochem. 72:248-254) levels or fixed in 4% paraformaldehyde for NF assay (Doherty et al., 1984, J. Neurochem. 42:1116-1122) and immunocytochemistry. Some cultures were grown in defined medium consisting of 50% F12 and 50% MEM, glutamine (2 mM), insulin (5 ug/ml), transferrin (100 ug/ml), progesterone (20 nM), putrescine (10 uM), and sodium selenite (30 nM) (Bottenstein and Sato, 1979, PNAS 76:514-517). In these cultures sera-containing medium was replaced with defined medium on day 1.\nCultures were harvested by lysing the cells in a 20 mM Tris-HCl (pH 8.6) solution containing 0.1% Triton X-100. Two microliters of the cell lysate was removed and assayed for CAT activity according to the micro-Fonnum procedure (Fonnum, 1975, J. Neurochem. 24:407-409). The final substrate composition consisted of 0.2 mM [1-^14C] Acetyl-CoA (NEN, 54.4 mCi/mmol), 300 mM NaCl, 8 mM choline bromide, 20 mM EDTA, and 0.1 mM neostigmine in 50 mM NaH2PO4 (pH 7.4) buffer. At these enzyme and substrate concentrations, the enzymatic reaction was linear for 90-120 minutes. The specificity of the induction for CAT was tested by the addition of a specific inhibitor of CAT activity, N-hydroxyethyl-4-(1-napthylvinyl) pyridium (HNP), during the assay (White and Cavallito, 1970, J. Neurochem. 17:1579-1589)."}},
  "data": [
    {"molecule": "B1", "values": [
      {"measurement": "time ventral neurons survive in defined medium", "setting": "[1]", "value": "> 1", "unit": "week"},
      {"measurement": "CAT Activity", "setting": "[1]; NGF 50 ng/ml at plating, day 7", "value": "959.5 ± 24.32", "unit": "CPM/dish"},
      {"measurement": "Protein", "setting": "[1]; NGF 50 ng/ml at plating, day 7", "value": 45, "unit": "μg/dish"},
      {"measurement": "time after treatment at which increase in CAT activity was apparent", "setting": "[2]", "value": 3, "unit": "days"},
      {"measurement": "effect on CAT activity with glia reduced to about 5% of total cells", "setting": "[2]; AraC 0.5 uM or serum-free medium, CNTF 10 ng/ml", "value": "remained unchanged"},
      {"measurement": "increase in CAT activity over the increase in number of cholinergic neurons", "setting": "[2]; CNTF 10 ng/ml", "value": 1.6, "unit": "fold"},
      {"measurement": "increase in CAT activity, delayed addition at day 2", "setting": "[2]; CNTF 10 ng/ml added on day 2, treated 7 further days", "value": 1.2, "unit": "fold"},
      {"measurement": "effect on CAT activity, delayed addition at day 6", "setting": "[2]; CNTF 10 ng/ml added on day 6, treated 7 further days", "value": "can no longer influence CAT activity"},
      {"measurement": "increase in CAT activity", "setting": "[2]; CNTF 10 ng/ml, NGF 50 ng/ml, FGF 50 ng/ml at plating, after 7 days in culture", "value": 4.0, "unit": "fold"},
      {"measurement": "CNTF concentration of maximal response in CAT activity", "setting": "[2]; day 7", "value": 1, "unit": "ng/mL"}
    ]}
  ]
}
